Biological target: the molecule itself
Assay: cryo-EM structure; single-particle reconstruction of purified channel reconstituted into POPC vesicles (protein:lipid 1:20, 10 mM Tris pH 8.0, 150 mM KCl); C4-symmetric map; monomers to tetramer

B1: Human HCN1 with a C-terminal truncation (residues 636 to 865) (natural protein, UniProt O60741 1-890, looked up)
chain: MEGGGKPNSSSNSRDDGNSVFPAKASATGAGPAAAEKRLGTPPGGGGAGAKEHGNSVCFKVDGGGGGGGGGGGGEEPAGGFEDAEGPRRQYGFMQRQFTSMLQPGVNKFSLRMFGSQKAVEKEQERVKTAGFWIIHPYSDFRFYWDLIMLIMMVGNLVIIPVGITFFTEQTTTPWIIFNVASDTVFLLDLIMNFRTGTVNEDSSEIILDPKVIKMNYLKSWFVVDFISSIPVDYIFLIVEKGMDSEVYKTARALRIVRFTKILSLLRLLRLSRLIRYIHQWEEIFHMTYDLASAVVRIFNLIGMMLLLCHWDGCLQFLVPLLQDFPPDCWVSLNEMVNDSWGKQYSYALFKAMSHMLCIGYGAQAPVSMSDLWITMLSMIVGATCYAMFVGHATALIQSLDSSRRQYQEKYKQVEQYMSFHKLPADMRQKIHDYYEHRYQGKIFDEENILNELNDPLREEIVNFNCRKLVATMPLFANADPNFVTAMLSKLRFEVFQPGDYIIREGAVGKKMYFIQHGVAGVITKSSKEMKLTDGSYFGEICLLTKGRRTASVRADTYCRLYSLSVDNFNEVLEEYPMMRRAFETVAIDRLDRIGKKNSILLQKFQKDLNTGVFNNQENEILKQIVKHDREMVQAALPRESSSVLNTDPDAEKPRFASNL
notes: source: HEK293S GnTI- cells (BacMam), purified (GFP-nanobody resin, SEC in LMNG:CHS), reconstituted into POPC vesicles
stoichiometry N: 4

From paper PMC12232663, “Molecular contacts in self-assembling clusters of membrane proteins” (Proceedings of the National Academy of Sciences of the …, 2025)
